Molecular target: T1, in vitro translated GGA3 wild type (from HA-GGA3 pcDNA4 plasmid), Q9NZ52
T1 chain: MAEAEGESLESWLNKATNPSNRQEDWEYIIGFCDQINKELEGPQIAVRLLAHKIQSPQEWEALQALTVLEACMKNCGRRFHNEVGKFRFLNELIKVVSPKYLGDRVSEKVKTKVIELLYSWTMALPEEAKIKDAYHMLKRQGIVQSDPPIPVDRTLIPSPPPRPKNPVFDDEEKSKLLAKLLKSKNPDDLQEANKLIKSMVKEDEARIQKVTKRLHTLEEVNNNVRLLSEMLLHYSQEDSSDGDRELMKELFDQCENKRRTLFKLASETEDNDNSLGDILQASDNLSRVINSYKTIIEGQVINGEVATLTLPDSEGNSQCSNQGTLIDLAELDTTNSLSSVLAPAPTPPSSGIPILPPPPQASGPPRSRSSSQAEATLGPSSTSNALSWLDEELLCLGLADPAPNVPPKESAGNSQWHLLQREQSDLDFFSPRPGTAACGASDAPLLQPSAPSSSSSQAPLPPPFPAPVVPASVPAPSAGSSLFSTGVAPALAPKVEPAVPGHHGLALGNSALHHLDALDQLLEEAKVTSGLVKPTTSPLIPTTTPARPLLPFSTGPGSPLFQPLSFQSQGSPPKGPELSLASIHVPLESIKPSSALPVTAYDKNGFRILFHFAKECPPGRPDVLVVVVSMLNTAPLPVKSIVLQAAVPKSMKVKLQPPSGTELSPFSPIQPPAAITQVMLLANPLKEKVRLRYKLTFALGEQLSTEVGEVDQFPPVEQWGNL

B1: recombinant caspase 3 (Pharmingen) (protein)
chain: SGISLDNSYKMDYPEMGLCIIINNKNFHKSTGMTSRSGTDVDAANLRETFRNLKYEVRNKNDLTREEIVELMRDVSKEDHSKRSSFVCVLLSHGEEGIIFGTNGPVDLKKITNFFRGDRCRSLTGKPKLFIIQACRGTELDCGIETDSGVDDDMACHKIPVEADFLYAYSTAPGYYSWRNSKDGSWFIQSLCAMLKQYADKLEFMHILTRVNRKVATEFESFSFDATFHAKKQIPCIVSMLTKELYFYH
cleavage of in vitro translated GGA3 (cold methionine), Western blot with anti-GGA3 antibody: recombinant caspase 3 cleaves in vitro translated GGA3 (cold methionine) in three fragments
cleavage of in vitro translated [35S]-methionine-labeled GGA3 (SDS-PAGE, phosphorimager): Recombinant caspase 3 cleaved in vitro translated GGA3 in several fragments
